This data set has as its system Escherichia coli TOP10. Kind of data set: shrunken log2 fold change of peptide-encoding DNA abundance (4.5 h post-induction vs induction); higher = less antimicrobial activity (less host growth inhibition). As to conditions: time post-induction: 4.5 h; library: site-saturation at positions 5, 18, 19, 20.
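Also: peptides expressed intracellularly from a pBAD plasmid library in pooled LB shake-flask culture, induced with 0.3% L-arabinose, DNA abundance read by NGS, three biological replicates, DESeq2 with apeglm shrinkage.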

On to RRIRRRPPRLPRPRPRPVFTPRP, for which the “shrunken log2 fold change” value was 0.188.
As to RRIRQRPPRLPRPRPRPDKIPRP, the “shrunken log2 fold change” value was -0.00225.
The figure for RRIRVRPPRLPRPRPRPYGAPRP is 0.162; for RRIRKRPPRLPRPRPRPLLHPRP it is 0.108; for RRIRARPPRLPRPRPRPKCWPRP it is 0.622.
On to RRIRLRPPRLPRPRPRPWYTPRP, for which the “shrunken log2 fold change” value is -0.57.
The figure for RRIRPRPPRLPRPRPRPHDNPRP is -0.347.
In the case of RRIRNRPPRLPRPRPRPCKDPRP it was -0.00844; in that of RRIRYRPPRLPRPRPRPTAWPRP, -0.011; in that of RRIRDRPPRLPRPRPRPDAVPRP, 0.585.
As to RRIRHRPPRLPRPRPRPGLIPRP, the “shrunken log2 fold change” value is -0.234.
In the case of RRIRRRPPRLPRPRPRPPHEPRP it was 0.449; in that of RRIRLRPPRLPRPRPRPANAPRP, 0.0811; in that of RRIRHRPPRLPRPRPRPKDEPRP, 0.0349.
Consider RRIRQRPPRLPRPRPRPGHSPRP, for which the “shrunken log2 fold change” value was -0.00616.
With RRIRLRPPRLPRPRPRPVWTPRP, the “shrunken log2 fold change” value was 0.00633.
Regarding RRIRTRPPRLPRPRPRPFIMPRP, the “shrunken log2 fold change” value is -0.339.
In the case of RRIRPRPPRLPRPRPRPQSSPRP it was -0.0675.
In the case of RRIRKRPPRLPRPRPRPNNNPRP it was -0.255.
On to RRIRHRPPRLPRPRPRPPIMPRP, for which the “shrunken log2 fold change” value is -0.285.
In the case of RRIRWRPPRLPRPRPRPLMHPRP it was 0.0245; in that of RRIRFRPPRLPRPRPRPFEYPRP, -0.281; in that of RRIRDRPPRLPRPRPRPHCCPRP, -0.00968.
Consider RRIRVRPPRLPRPRPRPLVEPRP, for which the “shrunken log2 fold change” value was -0.125.
In the case of RRIRFRPPRLPRPRPRPNAIPRP it was -0.322.
In the case of RRIRYRPPRLPRPRPRPDSDPRP it was -0.179; in that of RRIRHRPPRLPRPRPRPISMPRP, -1.58.
In the case of RRIRKRPPRLPRPRPRPTVEPRP it was 0.377; in that of RRIRRRPPRLPRPRPRPRDQPRP, 0.341; in that of RRIRTRPPRLPRPRPRPNKNPRP, -0.156.
On to RRIRKRPPRLPRPRPRPPDDPRP, for which the “shrunken log2 fold change” value was 1.99.
In the case of RRIRDRPPRLPRPRPRPWDRPRP it was -0.193.
On to RRIRGRPPRLPRPRPRPTPDPRP, for which the “shrunken log2 fold change” value turned out to be 1.24.
Take RRIRLRPPRLPRPRPRPDRVPRP: the “shrunken log2 fold change” value is -0.0538.
In the case of RRIRKRPPRLPRPRPRPDCFPRP it was 0.315; in that of RRIRARPPRLPRPRPRPPIPPRP, 0.319.
In the case of RRIRWRPPRLPRPRPRPMWSPRP, the “shrunken log2 fold change” value was determined as 0.266.
In the case of RRIRHRPPRLPRPRPRPRVYPRP it was -0.0307; in that of RRIRMRPPRLPRPRPRPCLRPRP, -0.0737.
The figure for RRIRMRPPRLPRPRPRPATYPRP is 0.0281; for RRIRDRPPRLPRPRPRPWIAPRP it is -0.117.
In the case of RRIRHRPPRLPRPRPRPSCFPRP it was -0.257; in that of RRIRKRPPRLPRPRPRPFKFPRP, -0.0557; in that of RRIRSRPPRLPRPRPRPCETPRP, 0.18.
For RRIRERPPRLPRPRPRPMWWPRP, the “shrunken log2 fold change” value was -0.298.
The figure for RRIRRRPPRLPRPRPRPNDDPRP is 0.0687.
Consider RRIRCRPPRLPRPRPRPSFDPRP, for which the “shrunken log2 fold change” value was -0.282.
In the case of RRIRSRPPRLPRPRPRPFMWPRP it was -0.165; in that of RRIRKRPPRLPRPRPRPCERPRP, 0.019.
The figure for RRIRDRPPRLPRPRPRPNRMPRP is -0.196; for RRIRRRPPRLPRPRPRPREAPRP it is 0.254.
In the case of RRIRPRPPRLPRPRPRPISTPRP it was -0.324.
For the sequence RRIRQRPPRLPRPRPRPNCEPRP, the “shrunken log2 fold change” value amounted to 0.117.
For RRIRTRPPRLPRPRPRPKANPRP, the “shrunken log2 fold change” value is -0.00404.
The figure for RRIRKRPPRLPRPRPRPKIRPRP is 0.246; for RRIRVRPPRLPRPRPRPIYWPRP it is -0.0757; for RRIRYRPPRLPRPRPRPGQLPRP it is -0.284.
RRIRRRPPRLPRPRPRPRLFPRP: the “shrunken log2 fold change” value turned out to be 0.593.
In the case of RRIRVRPPRLPRPRPRPFKMPRP it was -0.398; in that of RRIRCRPPRLPRPRPRPQANPRP, 0.0603.
Consider RRIRFRPPRLPRPRPRPLMTPRP, for which the “shrunken log2 fold change” value turned out to be 0.189.
In the case of RRIRRRPPRLPRPRPRPWVPPRP, the “shrunken log2 fold change” value was -0.0825.
The figure for RRIRERPPRLPRPRPRPLTHPRP is -0.413; for RRIRGRPPRLPRPRPRPHNCPRP it is -0.0265; for RRIRARPPRLPRPRPRPYQPPRP it is 0.589.
The figure for RRIRCRPPRLPRPRPRPFVAPRP is -0.159; for RRIRPRPPRLPRPRPRPHKPPRP it is -0.0376.
For the sequence RRIRFRPPRLPRPRPRPSDCPRP, the “shrunken log2 fold change” value was -0.476.
On to RRIRDRPPRLPRPRPRPDCFPRP, for which the “shrunken log2 fold change” value was 1.04.
In the case of RRIRHRPPRLPRPRPRPQNLPRP it was -0.00783; in that of RRIRYRPPRLPRPRPRPGDPPRP, -0.223; in that of RRIRIRPPRLPRPRPRPANIPRP, -0.383.
The figure for RRIRSRPPRLPRPRPRPQERPRP is -0.0153; for RRIRMRPPRLPRPRPRPKPCPRP it is 0.366; for RRIRNRPPRLPRPRPRPWNPPRP it is -0.0102.
RRIRMRPPRLPRPRPRPVLMPRP: the “shrunken log2 fold change” value amounted to 0.229.
The figure for RRIRQRPPRLPRPRPRPREKPRP is 0.158; for RRIRWRPPRLPRPRPRPMEYPRP it is 0.0388; for RRIRQRPPRLPRPRPRPCPCPRP it is -0.354.
The figure for RRIRRRPPRLPRPRPRPYHHPRP is -0.471; for RRIRHRPPRLPRPRPRPVWFPRP it is 0.0927; for RRIRGRPPRLPRPRPRPFNVPRP it is -0.101.
In the case of RRIRCRPPRLPRPRPRPFYRPRP, the “shrunken log2 fold change” value was -0.313.
Turning to RRIRWRPPRLPRPRPRPEVNPRP, the “shrunken log2 fold change” value was determined as 0.321.
For the sequence RRIRWRPPRLPRPRPRPHDSPRP, the “shrunken log2 fold change” value was -0.122.
The figure for RRIRKRPPRLPRPRPRPDCVPRP is 0.342; for RRIRIRPPRLPRPRPRPYKPPRP it is -0.0367; for RRIRFRPPRLPRPRPRPPIKPRP it is 0.0125.
In the case of RRIRCRPPRLPRPRPRPPVVPRP it was 0.0152.
For the sequence RRIRYRPPRLPRPRPRPWSDPRP, the “shrunken log2 fold change” value is -0.0783.
In the case of RRIRARPPRLPRPRPRPYDVPRP it was -0.0868.
On to RRIRQRPPRLPRPRPRPIGVPRP, for which the “shrunken log2 fold change” value was -0.00783.
With RRIRNRPPRLPRPRPRPYWEPRP, the “shrunken log2 fold change” value is -0.293.
In the case of RRIRCRPPRLPRPRPRPLMLPRP, the “shrunken log2 fold change” value was -0.646.
In the case of RRIRWRPPRLPRPRPRPFPYPRP it was -0.44; in that of RRIRIRPPRLPRPRPRPIDFPRP, -0.0103; in that of RRIRSRPPRLPRPRPRPCAEPRP, 0.0817.
RRIRQRPPRLPRPRPRPRMSPRP: the “shrunken log2 fold change” value is 0.208.
The figure for RRIRLRPPRLPRPRPRPRCAPRP is 0.504.
In the case of RRIRRRPPRLPRPRPRPVTFPRP it was 0.00522; in that of RRIRSRPPRLPRPRPRPFDLPRP, -0.419; in that of RRIRLRPPRLPRPRPRPSGQPRP, -0.0893.
In the case of RRIRDRPPRLPRPRPRPAIEPRP it was 0.0117; in that of RRIRLRPPRLPRPRPRPEFMPRP, -0.109.
In the case of RRIRHRPPRLPRPRPRPNPMPRP, the “shrunken log2 fold change” value is -0.00731.
The figure for RRIRPRPPRLPRPRPRPKVMPRP is 0.294; for RRIRRRPPRLPRPRPRPRRIPRP it is 0.251; for RRIRFRPPRLPRPRPRPTICPRP it is -0.288.
Consider RRIRHRPPRLPRPRPRPEKFPRP, for which the “shrunken log2 fold change” value was -0.0202.
For RRIRVRPPRLPRPRPRPNYDPRP, the “shrunken log2 fold change” value came out at 0.273.
The figure for RRIRIRPPRLPRPRPRPVYLPRP is -0.0309; for RRIRTRPPRLPRPRPRPKQKPRP it is -0.203; for RRIRPRPPRLPRPRPRPKQCPRP it is 0.147.
In the case of RRIRIRPPRLPRPRPRPMNCPRP it was 0.0904; in that of RRIRWRPPRLPRPRPRPFSAPRP, -0.133; in that of RRIRHRPPRLPRPRPRPCRRPRP, -0.131.
The figure for RRIRYRPPRLPRPRPRPKTAPRP is -0.0087; for RRIRHRPPRLPRPRPRPCEIPRP it is -0.171; for RRIRHRPPRLPRPRPRPPKPPRP it is 0.116.
With RRIRQRPPRLPRPRPRPKCHPRP, the “shrunken log2 fold change” value is -0.0268.
On to RRIRWRPPRLPRPRPRPHIGPRP, for which the “shrunken log2 fold change” value was -0.079.
In the case of RRIRQRPPRLPRPRPRPNGGPRP it was 0.00705; in that of RRIRERPPRLPRPRPRPGGMPRP, -0.02; in that of RRIRYRPPRLPRPRPRPSSEPRP, 0.0163.
The figure for RRIRARPPRLPRPRPRPKYQPRP is -0.112.

The values above are taken from the supplement of paper PMC9112550, “Optimization of the antimicrobial peptide Bac7 by deep mutational scanning” (BMC Biology, 2022).
